Experimental data: article PMC8244417

Key:
[1] = target: TmZIP N-terminally fused to His10-GFP-TEV; test: SDS-PAGE of the IMAC-pure protein
[2] = target: TmZIP C-terminally fused to TEV-GFP-His10; test: SDS-PAGE of the IMAC-pure protein

stoichiometry N [1] | stoichiometry N [2] | Substance
2 |  | TmZIP N-terminally fused to His10-GFP-TEV (natural protein)
 | 2 | TmZIP C-terminally fused to TEV-GFP-His10 (natural protein)
